As usually defined, the Kd is the free concentration of one partner at which half of the binding sites on the other are occupied at equilibrium, for simple one-to-one binding. The low end stands for a tighter complex, the high end for a looser complex.

Results on 2 substances are retold here after publication PMC10777313.

Assay [1] concerns the target hCD16a (FcγR IIIa) (human) (UniProt P08637). In words: BLI. (BLI is a label-free optical method that tracks binding on a fibre tip over time.)
Assay [2] has as its target hCD16b (FcγR IIIb) (human) (UniProt O75015). As to the kind of experiment: BLI.
Assay [3] has as its target hCD32b (FcγR IIb) (human) (UniProt P31994). In words: BLI.
The target in assay [4] is mCD16-2 (mouse). As to the kind of experiment: BLI; Fortebio Octet, 30°C; FcγRs loaded on NTA sensors at 5 μg/mL (2.5 nm); antibodies in solution, six 2-fold dilutions; 1× PBS, 0.1% BSA, 0.02% Tween 20; steady-state equilibrium analysis.
In assay [5] the target is mCD32b (mouse) (UniProt P08101). The description is as above.
UniProt P08101, sequence (P08101 30-330): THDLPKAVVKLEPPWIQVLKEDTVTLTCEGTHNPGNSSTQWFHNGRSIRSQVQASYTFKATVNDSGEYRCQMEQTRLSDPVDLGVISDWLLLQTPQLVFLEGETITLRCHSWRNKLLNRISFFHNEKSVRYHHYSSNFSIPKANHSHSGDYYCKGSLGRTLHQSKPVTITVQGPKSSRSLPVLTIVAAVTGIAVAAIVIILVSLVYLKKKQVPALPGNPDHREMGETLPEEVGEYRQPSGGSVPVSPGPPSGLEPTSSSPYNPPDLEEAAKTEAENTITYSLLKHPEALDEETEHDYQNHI

UniProt P31994, sequence (P31994 43-310): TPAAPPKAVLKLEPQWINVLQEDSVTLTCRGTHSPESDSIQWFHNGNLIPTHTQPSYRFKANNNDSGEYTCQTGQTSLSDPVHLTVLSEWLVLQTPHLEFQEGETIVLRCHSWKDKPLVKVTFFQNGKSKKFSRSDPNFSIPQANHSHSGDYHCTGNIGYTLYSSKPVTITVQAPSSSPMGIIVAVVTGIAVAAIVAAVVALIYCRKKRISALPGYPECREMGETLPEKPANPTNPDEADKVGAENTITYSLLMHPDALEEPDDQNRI
UniProt O75015, sequence (O75015 17-200): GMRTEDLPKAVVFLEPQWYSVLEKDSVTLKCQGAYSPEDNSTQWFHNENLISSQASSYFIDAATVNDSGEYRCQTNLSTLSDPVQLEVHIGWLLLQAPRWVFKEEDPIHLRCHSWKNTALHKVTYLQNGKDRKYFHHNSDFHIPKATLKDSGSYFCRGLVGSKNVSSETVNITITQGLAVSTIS
UniProt P08637, sequence (P08637 17-208): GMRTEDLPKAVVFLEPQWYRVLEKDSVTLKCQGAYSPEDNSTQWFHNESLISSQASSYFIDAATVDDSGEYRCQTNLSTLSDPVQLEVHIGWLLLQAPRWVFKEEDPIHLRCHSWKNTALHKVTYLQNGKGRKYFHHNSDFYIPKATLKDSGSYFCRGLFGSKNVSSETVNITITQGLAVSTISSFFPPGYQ

Consider “Wild-type huE6F6 (huE6F6-wt) (from UniProt P01857)”, for which the Kd in assay [1] worked out at 0.805 µM; in assay [2], 2.58 µM; in assay [3] it was 1.1 µM.

As for Wild-type huE6F6 (huE6F6-wt) (antibody), the Kd in assay [4] came out at 1.1 µM; in assay [5], 2.8 µM.
